Six molecules from patent publication US20240190989A1 (BEIGENE SWITZERLAND, published 2024) can be followed below.

The target of assay [1] is T1, full-length human CD137 on cells (Hut78/huCD137, HEK293 transfectants, JK-NFKB-CD137) (human, UniProt Q07011 24-255).
T1 construct: also called native CD137; TNFRSF9
In words: flow cytometry on Hut78/huCD137 cells [panel B].

Assay [2] deals with T2, human CD137 ECD-mIgG2a (human).
T2 construct: ECD 24-183 of huCD137 fused to mouse IgG2a Fc; also called huCD137-mIgG2a; huCD137
T2 sequence (chain, as listed by the source limits assumed): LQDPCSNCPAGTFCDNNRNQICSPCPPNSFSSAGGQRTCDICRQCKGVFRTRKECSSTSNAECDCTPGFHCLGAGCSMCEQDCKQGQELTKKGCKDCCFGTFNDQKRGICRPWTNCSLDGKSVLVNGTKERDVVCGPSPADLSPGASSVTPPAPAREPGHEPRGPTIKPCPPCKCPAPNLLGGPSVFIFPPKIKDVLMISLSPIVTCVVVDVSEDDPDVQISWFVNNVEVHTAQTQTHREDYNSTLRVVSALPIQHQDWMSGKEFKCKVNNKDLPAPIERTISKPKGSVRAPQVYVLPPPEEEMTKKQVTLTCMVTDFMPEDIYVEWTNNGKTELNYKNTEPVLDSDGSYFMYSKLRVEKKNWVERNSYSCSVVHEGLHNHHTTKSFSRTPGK
The assay can be described thus: SPR, A-CEAxCD137 format.

Assay [3] addresses T2, human CD137 ECD-mIgG2a. The assay can be described thus: SPR, Format A-CEAxCD137; Format A-CEAxCD137, not Fc fusion VH.
In assay [4] the target is T1, full-length human CD137 on cells …. In words: flow cytometry on Hut78/huCD137 cells.
For assay [5] the target is unchanged. The assay can be described thus: flow cytometry on Hut78/huCD137 cells [panel A].
In assay [6] the target is T3, full-length human CEA on cells (MKN45, LOVO, L929/huCEA, CT26/CEA, CT26-OS8-CEA) (human, UniProt P06731 35-685).
T3 construct: also called CEACAM5; native CEA
T3 sequence: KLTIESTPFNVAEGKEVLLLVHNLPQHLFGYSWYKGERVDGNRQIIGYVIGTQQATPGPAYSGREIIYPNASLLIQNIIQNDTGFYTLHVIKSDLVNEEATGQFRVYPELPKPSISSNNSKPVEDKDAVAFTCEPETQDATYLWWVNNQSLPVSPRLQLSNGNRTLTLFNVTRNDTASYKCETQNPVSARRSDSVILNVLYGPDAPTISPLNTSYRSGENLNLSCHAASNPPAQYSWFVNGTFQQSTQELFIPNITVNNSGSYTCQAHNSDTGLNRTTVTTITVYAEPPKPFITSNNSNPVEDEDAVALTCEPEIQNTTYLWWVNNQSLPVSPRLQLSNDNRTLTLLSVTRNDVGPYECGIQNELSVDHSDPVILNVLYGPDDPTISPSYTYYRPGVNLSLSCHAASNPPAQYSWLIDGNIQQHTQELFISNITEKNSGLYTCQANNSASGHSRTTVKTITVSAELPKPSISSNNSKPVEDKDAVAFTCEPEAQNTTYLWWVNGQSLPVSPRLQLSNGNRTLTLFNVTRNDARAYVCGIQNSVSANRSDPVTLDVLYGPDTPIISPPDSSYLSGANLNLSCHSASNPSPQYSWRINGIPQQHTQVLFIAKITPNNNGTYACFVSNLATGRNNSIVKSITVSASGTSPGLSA
The assay can be described thus: flow cytometry on CT26/CEA cells [panel A].

For assay [7], the target named is T1, full-length human CD137 on cells …. In words: flow cytometry on Hut78/huCD137 cells. The source holds these as a separate data set.
The target of assay [8] is T2, human CD137 ECD-mIgG2a. In words: SPR, Fc-fusion VH captured.
In assay [9] the target is T4, human CD40 ECD-mIgG2a (human).
T4 construct: also called TNFRSF5(CD40)
T4 sequence (chain, as listed by the source limits assumed): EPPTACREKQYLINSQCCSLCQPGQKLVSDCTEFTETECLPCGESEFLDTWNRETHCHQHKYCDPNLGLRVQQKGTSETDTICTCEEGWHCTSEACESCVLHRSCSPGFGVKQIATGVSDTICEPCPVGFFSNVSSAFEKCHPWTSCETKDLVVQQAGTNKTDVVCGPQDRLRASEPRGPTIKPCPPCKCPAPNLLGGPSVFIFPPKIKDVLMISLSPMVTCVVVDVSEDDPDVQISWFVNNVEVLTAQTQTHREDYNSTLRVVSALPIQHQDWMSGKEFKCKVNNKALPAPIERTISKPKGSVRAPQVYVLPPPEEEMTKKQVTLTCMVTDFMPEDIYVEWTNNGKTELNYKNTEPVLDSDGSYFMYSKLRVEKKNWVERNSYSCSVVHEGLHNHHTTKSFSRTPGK
In words: antigen ELISA, antigens coated at 10 µg/ml.

Assay [10] addresses T5, TNFRSF1A (CD120a), Sino Biological (UniProt P19438 30-211, limits assumed).
T5 construct: also called TNFRSF1A(CD12.a)
T5 sequence (looked up): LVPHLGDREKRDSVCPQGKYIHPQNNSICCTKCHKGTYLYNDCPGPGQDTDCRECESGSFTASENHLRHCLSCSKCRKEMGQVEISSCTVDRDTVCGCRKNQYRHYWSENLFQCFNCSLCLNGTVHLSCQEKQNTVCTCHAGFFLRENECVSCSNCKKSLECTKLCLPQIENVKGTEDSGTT
The assay can be described thus: antigen ELISA, antigens coated at 10 µg/ml.

The target in assay [11] is T6, TNFRSF1B (CD120b), Sino Biological (UniProt P20333 23-257).
T6 sequence (looked up): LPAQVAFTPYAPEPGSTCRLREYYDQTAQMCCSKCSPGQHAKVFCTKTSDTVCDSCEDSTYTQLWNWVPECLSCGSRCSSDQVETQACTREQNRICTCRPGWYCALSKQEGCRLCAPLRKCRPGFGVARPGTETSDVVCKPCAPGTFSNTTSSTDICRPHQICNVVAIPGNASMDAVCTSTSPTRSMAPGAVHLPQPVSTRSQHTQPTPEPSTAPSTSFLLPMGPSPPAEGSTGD
In words: antigen ELISA, antigens coated at 10 µg/ml.

The target of assay [12] is T7, human OX40 ECD-His (human, UniProt P43489 29-216).
T7 construct: also called human OX40-his; TNFRSF4(OX40)
T7 sequence: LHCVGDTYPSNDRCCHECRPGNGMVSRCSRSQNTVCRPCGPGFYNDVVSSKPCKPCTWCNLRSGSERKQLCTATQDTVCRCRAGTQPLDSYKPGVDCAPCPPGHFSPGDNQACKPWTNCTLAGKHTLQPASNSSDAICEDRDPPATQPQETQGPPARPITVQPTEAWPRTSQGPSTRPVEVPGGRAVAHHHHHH
The assay can be described thus: antigen ELISA, antigens coated at 10 µg/ml.

In assay [13] the target is T1, full-length human CD137 on cells …. In words: flow cytometry on Hut78/huCD137 cells: serially diluted antibody against human CD137 ligand ECD-mIgG2a, bound ligand detected with goat anti-murine IgG-APC [panel B].
Assay [14] deals with T2, human CD137 ECD-mIgG2a. The assay can be described thus: competition ELISA on coated human CD137 ECD-mIgG2a: serially diluted human CD137 ligand ECD-mIgG2a against BGA-5623 (IgG4), bound antibody detected with anti-human IgG-HRP [panel A].
In assay [15] the target is T1, full-length human CD137 on cells …. The assay can be described thus: flow cytometry competition on Hut78/huCD137 cells: serially diluted human CD137 ligand-mIgG2a against BGA-4712 VH-Fc, bound VH-Fc detected with anti-hu IgG Fc [panel B].

T1 sequence (Q07011 24-255 limits assumed): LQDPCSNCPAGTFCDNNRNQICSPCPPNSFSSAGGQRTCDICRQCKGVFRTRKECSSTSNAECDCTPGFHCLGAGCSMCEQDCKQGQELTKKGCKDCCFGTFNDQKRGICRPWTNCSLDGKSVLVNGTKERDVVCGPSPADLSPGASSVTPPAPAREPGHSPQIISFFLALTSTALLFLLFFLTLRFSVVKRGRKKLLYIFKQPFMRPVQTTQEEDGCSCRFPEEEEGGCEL

B1: anti-CEA Ab (IgG1) (antibody, V domains shown)
VH: QVQLVQSGAEVKKPGASVKVSCKASGYIFTSYYLHWVRQAPGQGLEWIGYINPQTGKTSYAQKFQGRVTMTRDTSTSTVYMELSSLRSEDTAVYYCAREYGNYNYPLDYWGQGTLVTVSS
VL: DIQMTQSPSSLSASVGDRVTITCRASENQYGYLAWYQQKPGKVPKLLIYNYKNLVEGVPSRFSGSGSGTDFTLTISSLQPEDVATYYCQHHLGTPYTFGQGTKVEIKR
Turning to B1, in assay [1], the binding result is “no binding (tested: last point just above 10^2 ug/ml)”.

B2: A-CEAxCD137-M3 (Format A with BGA-4712-M3) (bispecific antibody, human IgG1, kappa)
heavy: QVQLVQSGAEVKKPGASVKVSCKASGYIFTSYYLHWVRQAPGQGLEWIGYINPQTGKTSYAQKFQGRVTMTRDTSTSTVYMELSSLRSEDTAVYYCAREYGNYNYPLDYWGQGTLVTVSSASTKGPSVFPLAPSSKSTSGGTAALGCLVKDYFPEPVTVSWNSGALTSGVHTFPAVLQSSGLYSLSSVVTVPSSSLGTQTYICNVNHKPSNTKVDKKVEPKSCDKTHTCPPCPAPPAAGPSVFLFPPKPKDTLMISRTPEVTCVVVDVSHEDPEVKFNWYVDGVEVHNAKTKPREEQYNSTYRVVSVLTVLHQDWLNGKEYKCKVSNKALAAPIEKTISKAKGQPREPQVYTLPPSREEMTKNQVSLTCLVKGFYPSDIAVEWESNGQPENNYKTTPPVLDSDGSFFLYSKLTVDKSRWQQGNVFSCSVMHEALHNHYTQKSLSLSPGKGGGGSEVQLLESGGGLVQPGGSLRLSCAASGFTLSAEDVGWVRQAPGKGLEWVSAILDFGGSTYYAESVKGRFTISRDNAKNTLYLQMSSLRAEDTAVYYCARVVYHAGGGVTFDYWGQGTLVTVSS
light: DIQMTQSPSSLSASVGDRVTITCRASENQYGYLAWYQQKPGKVPKLLIYNYKNLVEGVPSRFSGSGSGTDFTLTISSLQPEDVATYYCQHHLGTPYTFGQGTKVEIKRTVAAPSVFIFPPSDEQLKSGTASVVCLLNNFYPREAKVQWKVDNALQSGNSQESVTEQDSKDSTYSLSSTLTLSKADYEKHKVYACEVTHQGLSSPVTKSFNRGEC
As for B2, the dissociation constant (Kd) came out at 0.289 µM in assay [2] and 0.255 µM in assay [3]. Moreover, the midpoint of the response in assay [4], the EC50, lay at 0.52 mg/L.

B3: BGA-4712 (anti-huCD137 VH domain antibody as VH-Fc with inert human IgG1 Fc) (Fc fusion)
chain: EVQLLESGGGLVQPGGSLRLSCAASGFMLSAEDVGWVRQAPGKGLEWVSAILDFGGSTYYADSVKGRFTISRDNSKNTLYLQMNSLRAEDTAVYYCARVVYHAGGGVTFDYWGQGTLVTVSSGGGGSDKTHTCPPCPAPPAAGPSVFLFPPKPKDTLMISRTPEVTCVVVDVSHEDPEVKFNWYVDGVEVHNAKTKPREEQYNSTYRVVSVLTVLHQDWLNGKEYKCKVSNKALAAPIEKTISKAKGQPREPQVYTLPPSREEMTKNQVSLTCLVKGFYPSDIAVEWESNGQPENNYKTTPPVLDSDGSFFLYSKLTVDKSRWQQGNVFSCSVMHEALHNHYTQKSLSLSPGK
Turning to B3, the “EC50 (read off the curve)” value in assay [5] was roughly 3 mg/L. Further, in assay [6], the binding result is listed as “no binding (tested: last point just above 10^2 ug/ml)”.

B4: BGA-5623-mutFc (Fc fusion VH Ab) (Fc fusion)
chain: EVQLLESGGGLVQPGGSLRLSCAASGFTVSAEDVGWVRQAPGKGLEWVSAILDKGGSTYYAESVKGRFTISRDNAKNTLYLQMSSLRAEDTAVYYCARIVYHAGGGVTFDTRGQGTQVTVSSGGGGSDKTHTCPPCPAPPAAGPSVFLFPPKPKDTLMISRTPEVTCVVVDVSHEDPEVKFNWYVDGVEVHNAKTKPREEQYNSTYRVVSVLTVLHQDWLNGKEYKCKVSNKALAAPIEKTISKAKGQPREPQVYTLPPSREEMTKNQVSLTCLVKGFYPSDIAVEWESNGQPENNYKTTPPVLDSDGSFFLYSKLTVDKSRWQQGNVFSCSVMHEALHNHYTQKSLSLSPGK
As to B4, the “EC50 (read off the curve)” value in [7] was roughly 0.5 mg/L. For the same molecule, in assay [8], the affinity, expressed as Kd, was 0.0503 µM.

B5: Urelumab analog (antibody, human IgG4 S228P, kappa, V domains shown)
VH: QVQLQQWGAGLLKPSETLSLTCAVYGGSFSGYYWSWIRQSPEKGLEWIGEINHGGYVTYNPSLESRVTISVDTSKNQFSLKLSSVTAADTAVYYCARDYGPGNYDWYFDLWGRGTLVTVSS
VL: EIVLTQSPATLSLSPGERATLSCRASQSVSSYLAWYQQKPGQAPRLLIYDASNRATGIPARFSGSGSGTDFTLTISSLEPEDFAVYYCQQRSNWPPALTFGGGTKVEIKR
notes: also called Urelumab analog antibody
With B5, the binding result in [9], in assay [10], in assay [11] and in assay [12] was “no binding (tested: not shown)” throughout. Also, the “IC50 (read off the curve)” value in [13] is roughly 0.03 mg/L.

B6: human CD137 ligand-mIgG2a (Fc fusion)
chain: EPRGPTIKPCPPCKCPAPNLLGGPSVFIFPPKIKDVLMISLSPIVTCVVVDVSEDDPDVQISWFVNNVEVHTAQTQTHREDYNSTLRVVSALPIQHQDWMSGKEFKCKVNNKDLPAPIERTISKPKGSVRAPQVYVLPPPEEEMTKKQVTLTCMVTDFMPEDIYVEWTNNGKTELNYKNTEPVLDSDGSYFMYSKLRVEKKNWVERNSYSCSVVHEGLHNHHTTKSFSRTPGKGGGGSREGPELSPDDPAGLLDLRQGMFAQLVAQNVLLIDGPLSWYSDPGLAGVSLTGGLSYKEDTKELVVAKAGVYYVFFQLELRRVVAGEGSGSVSLALHLQPLRSAAGAAALALTVDLPPASSEARNSAFGFQGRLLHLSAGQRLGVHLHTEARARHAWQLTQGATVLGLFRVTPEIPAGLPSPRSE
notes: also called human CD137 ligand ECD-mIgG2a; huCD137 ligand
In the case of B6, the figures for the “IC50 (read off the curve)” value in assay [14] and in [15] were roughly 1 mg/L and roughly 0.4 mg/L, respectively.
